Laboratory results: PMC11574045, “A cofactor-induced repressive type of transcription factor condensation can be induced by synthetic peptides to suppress tumorigenesis” (The EMBO Journal, 2024)

B1: ASCL2 (protein, UniProt Q99929 1-193, looked up)
Achaete-scute homolog 2: MDGGTLPRSAPPAPPVPVGCAARRRPASPELLRCSRRRRPATAETGGGAAAVARRNERERNRVKLVNLGFQALRQHVPHGGASKKLSKVETLRSAVEYIRALQRLLAEHDAVRNALAGGLRPQAVRPSAPRGPPGTTPVAASPSRASSSPGRGGSSEPGSPRSAYSSDDSGCEGALSPAERELLDFSSWLGGY
B2: LMX1B (protein, UniProt O60663 1-402, looked up)
LIM homeobox transcription …: MDIATGPESLERCFPRGQTDCAKMLDGIKMEEHALRPGPATLGVLLGSDCPHPAVCEGCQRPISDRFLMRVNESSWHEECLQCAACQQALTTSCYFRDRKLYCKQDYQQLFAAKCSGCMEKIAPTEFVMRALECVYHLGCFCCCVCERQLRKGDEFVLKEGQLLCKGDYEKEKDLLSSVSPDESDSVKSEDEDGDMKPAKGQGSQSKGSGDDGKDPRRPKRPRTILTTQQRRAFKASFEVSSKPCRKVRETLAAETGLSVRVVQVWFQNQRAKMKKLARRHQQQQEQQNSQRLGQEVLSSRMEGMMASYTPLAPPQQQIVAMEQSPYGSSDPFQQGLTPPQMPGDHMNPYGNDSIFHDIDSDTSLTSLSDCFLGSSDVGSLQARVGNPIDRLYSMQSSYFAS
B3: LASS4 (protein, UniProt Q9HA82 1-394, looked up)
Ceramide synthase 4: MLSSFNEWFWQDRFWLPPNVTWTELEDRDGRVYPHPQDLLAALPLALVLLAMRLAFERFIGLPLSRWLGVRDQTRRQVKPNATLEKHFLTEGHRPKEPQLSLLAAQCGLTLQQTQRWFRRRRNQDRPQLTKKFCEASWRFLFYLSSFVGGLSVLYHESWLWAPVMCWDRYPNQTLKPSLYWWYLLELGFYLSLLIRLPFDVKRKDFKEQVIHHFVAVILMTFSYSANLLRIGSLVLLLHDSSDYLLEACKMVNYMQYQQVCDALFLIFSFVFFYTRLVLFPTQILYTTYYESISNRGPFFGYYFFNGLLMLLQLLHVFWSCLILRMLYSFMKKGQMEKDIRSDVEESDSSEEAAAAQEPLQLKNGAAGGPRPAPTDGPRSRVAGRLTNRHTTAT
B4: LASS3 (protein, UniProt Q8IU89 1-383, looked up)
Ceramide synthase 3: MFWTFKEWFWLERFWLPPTIKWSDLEDHDGLVFVKPSHLYVTIPYAFLLLIIRRVFEKFVASPLAKSFGIKETVRKVTPNTVLENFFKHSTRQPLQTDIYGLAKKCNLTERQVERWFRSRRNQERPSRLKKFQEACWRFAFYLMITVAGIAFLYDKPWLYDLWEVWNGYPKQPLLPSQYWYYILEMSFYWSLLFRLGFDVKRKDFLAHIIHHLAAISLMSFSWCANYIRSGTLVMIVHDVADIWLESAKMFSYAGWTQTCNTLFFIFSTIFFISRLIVFPFWILYCTLILPMYHLEPFFSYIFLNLQLMILQVLHLYWGYYILKMLNRCIFMKSIQDVRSDDEDYEEEEEEEEEEATKGKEMDCLKNGLRAERHLIPNGQHGH
B5: LMO1 (protein, UniProt P25800 1-156, looked up)
Rhombotin-1: MMVLDKEDGVPMLSVQPKGKQKGCAGCNRKIKDRYLLKALDKYWHEDCLKCACCDCRLGEVGSTLYTKANLILCRRDYLRLFGTTGNCAACSKLIPAFEMVMRARDNVYHLDCFACQLCNQRFCVGDKFFLKNNMILCQMDYEEGQLNGTFESQVQ
B6: MAD3 (protein, UniProt Q9BW11 1-206, looked up)
Max dimerization protein 3: MEPLASNIQVLLQAAEFLERREREAEHGYASLCPHRSPGPIHRRKKRPPQAPGAQDSGRSVHNELEKRRRAQLKRCLERLKQQMPLGADCARYTTLSLLRRARMHIQKLEDQEQRARQLKERLRSKQQSLQRQLEQLRGLAGAAERERLRADSLDSSGLSSERSDSDQEELEVDVESLVFGGEAELLRGFVAGQEHSYSHGGGAWL
B7: LASS6 (protein, UniProt Q6ZMG9 1-384, looked up)
Ceramide synthase 6: MAGILAWFWNERFWLPHNVTWADLKNTEEATFPQAEDLYLAFPLAFCIFMVRLIFERFVAKPCAIALNIQANGPQIAPPNAILEKVFTAITKHPDEKRLEGLSKQLDWDVRSIQRWFRQRRNQEKPSTLTRFCESMWRFSFYLYVFTYGVRFLKKTPWLWNTRHCWYNYPYQPLTTDLHYYYILELSFYWSLMFSQFTDIKRKDFGIMFLHHLVSIFLITFSYVNNMARVGTLVLCLHDSADALLEAAKMANYAKFQKMCDLLFVMFAVVFITTRLGIFPLWVLNTTLFESWEIVGPYPSWWVFNLLLLLVQGLNCFWSYLIVKIACKAVSRGKVSKDDRSDIESSSDEEDSEPPGKNPHTATTTNGTSGTNGYLLTGSCSMDD
B8: LEF1 (protein, UniProt Q9UJU2 1-399, looked up)
Lymphoid enhancer-binding …: MPQLSGGGGGGGGDPELCATDEMIPFKDEGDPQKEKIFAEISHPEEEGDLADIKSSLVNESEIIPASNGHEVARQAQTSQEPYHDKAREHPDDGKHPDGGLYNKGPSYSSYSGYIMMPNMNNDPYMSNGSLSPPIPRTSNKVPVVQPSHAVHPLTPLITYSDEHFSPGSHPSHIPSDVNSKQGMSRHPPAPDIPTFYPLSPGGVGQITPPLGWQGQPVYPITGGFRQPYPSSLSVDTSMSRFSHHMIPGPPGPHTTGIPHPAIVTPQVKQEHPHTDSDLMHVKPQHEQRKEQEPKRPHIKKPLNAFMLYMKEMRANVVAECTLKESAAINQILGRRWHALSREEQAKYYELARKERQLHMQLYPGWSARDNYGKKKKRKREKLQESASGTGPRMTAAYI
B9: MAD (protein, UniProt Q05195 1-221, looked up)
Max dimerization protein 1: MAAAVRMNIQMLLEAADYLERREREAEHGYASMLPYNNKDRDALKRRNKSKKNNSSSRSTHNEMEKNRRAHLRLCLEKLKGLVPLGPESSRHTTLSLLTKAKLHIKKLEDCDRKAVHQIDQLQREQRHLKRQLEKLGIERIRMDSIGSTVSSERSDSDREEIDVDVESTDYLTGDLDWSSSSVSDSDERGSMQSLGSDEGYSSTSIKRIKLQDSHKACLGL
B10: LBX2 (protein, UniProt Q9WUN8 1-195, looked up)
Transcription factor LBX2: MNSVHQRRTPFSIADILGPSMVPEAPSAPQLPEAGPDPASPLCALEELASKTFLGHSPRATPQPSEGRAAPEAPPGPGAGVRRRRKSRTAFTAQQVLELERRFVFQKYLAPSERDGLAARLGLANAQVVTWFQNRRAKLKRDVEEMRADVASLCGLSPGVLCYPALPDSTSSPDPGPSGPDSEPNLSDEEIQVDD
B11: LIN28B (protein, UniProt Q6ZN17 1-250, looked up)
Protein lin-28 homolog B: MAEGGASKGGGEEPGKLPEPAEEESQVLRGTGHCKWFNVRMGFGFISMINREGSPLDIPVDVFVHQSKLFMEGFRSLKEGEPVEFTFKKSSKGLESIRVTGPGGSPCLGSERRPKGKTLQKRKPKGDRCYNCGGLDHHAKECSLPPQPKKCHYCQSIMHMVANCPHKNVAQPPASSQGRQEAESQPCTSTLPREVGGGHGCTSPPFPQEARAEISERSGRSPQEASSTKSSIAPEEQSKKGPSVQKRKKT
B12: LHX2 (protein, UniProt P50458 1-406, looked up)
LIM/homeobox protein Lhx2: MLFHSLSGPEVHGVIDEMDRRAKSEAPAISSAIDRGDTETTMPSISSDRAALCAGCGGKISDRYYLLAVDKQWHMRCLKCCECKLNLESELTCFSKDGSIYCKEDYYRRFSVQRCARCHLGISASEMVMRARDLVYHLNCFTCTTCNKMLTTGDHFGMKDSLVYCRLHFEALLQGEYPAHFNHADVAAAAAAAAAAKSAGLGAAGANPLGLPYYNGVGTVQKGRPRKRKSPGPGADLAAYNAALSCNENDAEHLDRDQPYPSSQKTKRMRTSFKHHQLRTMKSYFAINHNPDAKDLKQLAQKTGLTKRVLQVWFQNARAKFRRNLLRQENTGVDKSTDAALQTGTPSGPASELSNASLSPSSTPTTLTDLTSPTLPTVTSVLTSVPGNLEGHEPHSPSQTTLTNLF
B13: LMCD1 (protein, UniProt Q9NZU5 1-365, looked up)
LIM and cysteine-rich domains …: MAKVAKDLNPGVKKMSLGQLQSARGVACLGCKGTCSGFEPHSWRKICKSCKCSQEDHCLTSDLEDDRKIGRLLMDSKYSTLTARVKGGDGIRIYKRNRMIMTNPIATGKDPTFDTITYEWAPPGVTQKLGLQYMELIPKEKQPVTGTEGAFYRRRQLMHQLPIYDQDPSRCRGLLENELKLMEEFVKQYKSEALGVGEVALPGQGGLPKEEGKQQEKPEGAETTAATTNGSLSDPSKEVEYVCELCKGAAPPDSPVVYSDRAGYNKQWHPTCFVCAKCSEPLVDLIYFWKDGAPWCGRHYCESLRPRCSGCDEIIFAEDYQRVEDLAWHRKHFVCEGCEQLLSGRAYIVTKGQLLCPTCSKSKRS
B14: LIN28 (protein, UniProt Q9H9Z2 2-209, looked up)
Protein lin-28 homolog A: GSVSNQQFAGGCAKAAEEAPEEAPEDAARAADEPQLLHGAGICKWFNVRMGFGFLSMTARAGVALDPPVDVFVHQSKLHMEGFRSLKEGEAVEFTFKKSAKGLESIRVTGPGGVFCIGSERRPKGKSMQKRRSKGDRCYNCGGLDHHAKECKLPPQPKKCHFCQSISHMVASCPLKAQQGPSAQGKPTYFREEEEEIHSPTLLPEAQN
B15: LITAF (protein, UniProt Q99732 1-161, looked up)
Lipopolysaccharide-induced …: MSVPGPYQAATGPSSAPSAPPSYEETVAVNSYYPTPPAPMPGPTTGLVTGPDGKGMNPPSYYTQPAPIPNNNPITVQTVYVQHPITFLDRPIQMCCPSCNKMIVSQLSYNAGALTWLSCGSLCLLGCIAGCCFIPFCVDALQDVDHYCPNCRALLGTYKRL
B16: LHX3 (protein, UniProt Q9UBR4 1-397, looked up)
LIM/homeobox protein Lhx3: MLLETGLERDRARPGAAAVCTLGGTREIPLCAGCDQHILDRFILKALDRHWHSKCLKCSDCHTPLAERCFSRGESVYCKDDFFKRFGTKCAACQLGIPPTQVVRRAQDFVYHLHCFACVVCKRQLATGDEFYLMEDSRLVCKADYETAKQREAEATAKRPRTTITAKQLETLKSAYNTSPKPARHVREQLSSETGLDMRVVQVWFQNRRAKEKRLKKDAGRQRWGQYFRNMKRSRGGSKSDKDSVQEGQDSDAEVSFPDEPSLAEMGPANGLYGSLGEPTQALGRPSGALGNFSLEHGGLAGPEQYRELRPGSPYGVPPSPAAPQSLPGPQPLLSSLVYPDTSLGLVPSGAPGGPPPMRVLAGNGPSSDLSTGSSGGYPDFPASPASWLDEVDHAQF

System: HEK293FT cells transfected with TF library
Assay: Screening of TF condensates based on fluorescent puncta
Assay type: cell-based
Settings: Figure 1B numerical data; TF library screen, one value per transcriptional factor
Summary of the method: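 HEK293FT, PEI transfection of TF library, 60 h; ±glucose 12 h; 4% PFA fix, 0.05% Triton X-100 permeabilization, 5% BSA block; anti-Flag/anti-GAL4 overnight at 4 °C, Alexa 488 secondary 1 h; high-content imaging, 50 fields/well.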

| Molecule | Z score of condensed fraction |
| --- | --- |
| B1 | 0.864 |
| B2 | 0.1118 |
| B3 | -0.3767 |
| B4 | -1.783 |
| B5 | 0.976 |
| B6 | -1.116 |
| B7 | -0.6196 |
| B8 | 0.2503 |
| B9 | 0.4682 |
| B10 | -0.9162 |
| B11 | -0.9223 |
| B12 | 0.8007 |
| B13 | 2.397 |
| B14 | -0.1683 |
| B15 | 0.004705 |
| B16 | -0.2379 |
